According to patent US20140275493A1 (Bayer, published 2014):

Target: T1, Human TFPI (tissue factor pathway inhibitor) (human, UniProt P10646 29-304, limits assumed)
T1 construct: Coated on Maxisorb plates for the ELISA
T1 sequence (looked up): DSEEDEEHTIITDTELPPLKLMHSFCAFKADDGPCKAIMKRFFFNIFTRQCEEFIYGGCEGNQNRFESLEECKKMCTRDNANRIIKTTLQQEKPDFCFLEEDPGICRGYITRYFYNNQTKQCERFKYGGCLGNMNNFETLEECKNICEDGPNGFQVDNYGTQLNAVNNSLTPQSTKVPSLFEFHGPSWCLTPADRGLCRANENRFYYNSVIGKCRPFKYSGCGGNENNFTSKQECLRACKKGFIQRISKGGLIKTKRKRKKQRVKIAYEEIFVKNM
Experiment: pH 6.0 TFPI dissociation ELISA, ratio of signals
Procedure: Human TFPI, 1 μg/ml, was used to coat Maxisorb™ microtiter plates. Expression media, 100 μl, from each member of the His scan library, was added to two wells on the plate, in a pair wise fashion. The plate was incubated on a shaker at room temperature for 1 hr. The plate was washed 3× with PBST. PBS (pH 7.0) was added to one well of the pair, 100 mM pH6.0 Citrate buffer was added to the second well of the same pair. The plate was incubated at 37° C. with shaking for one hr. The plate was washed 3× with PBST and developed using amplex red. A pH 7.0/pH 6.0 ratio was established to rank the sensitive muteins. The ratio for wild type 2A8-g200 Fab was 1.0.

B1: 2A8-g200 Fab VL-Y31H (Fab, V domains shown)
VH: EVQLVESGGGLVQPGGSLRLSCAASGFTFSSYGMDWVRQAPGKGLEWVSSIRGSRGSTYYADSVKGRFTISRDNSKNTLYLQMNSLRAEDTAVYYCARLYRYWFDYWGQGTLVTVSS
VL: SYELTQPPSVSVSPGQTARITCSGDNLPKYHAHWYQQKPGQAPVVVIFYDVNRPSGIPERFSGSNSGNTATLTISGTQAMDEADYYCQAWWSSTPVFGGGTKLTVLG
- Ratio pH 7.0/pH 6.0: 6.64
